Data: patent publication US20240301086A1 (APTEVO RESEARCH AND DEVELOPMENT, published 2024)
One block for each binder: values may come before it.

Legend:
[1] = target: T1, Full-length Human PSMA (TSC435), on cells (human, UniProt Q04609 1-750); assay: flow cytometry on C4-2B cells, PE goat anti-human IgG Fc secondary, MFI (median)
T1 construct: also called CHOK1SV/huPSMA; PSMA on C4-2B, 22RV1, LNCaP, MDA-PCa-2b cells
Experimental: The PSMA-binding domain PSMA01023 was evaluated in several different structural formats, including an alternative Fc region with different mutations to eliminate effector function. The PSMA01023 binding domain was configured in scFv-Fc format in VL-VH (PSMA01036) and VH-VL (PSMA01037) orientations and in Fc-scFv format in VL-VH (PSMA01040) and VH-VL (PSMA01041) orientations. These molecules were evaluated for the impact of the orientation of the scFv domains (VH-VL versus VL-VH) and position on the Fc (N- vs. C-terminus) on binding to PSMA (+) tumor cells.
C4-2B and 22RV1 cells were labelled at approximately 100,000 cells per well, in 96-well plates, with serial dilutions of PSMA-binding constructs ranging from of 0.1 to 300 nM for 30 min on ice, followed by washes and incubation with PE-labeled minimum cross species reactive secondary antibody, goat anti-human IgG Fcγ, F(ab′)2 (Jackson Laboratory) for 30 minutes on ice. Washes and incubation were done in staining buffer (PBS with 0.2% BSA and 2 mM EDTA). Cells were collected using a BDM LSRII or a BD FACSymphony™ flow cytometer (BD Biosciences) and analyzed by FlowJo flow cytometry analysis software. Median fluorescence intensity (MFI) of bound molecules on cells was determined after exclusion of doublets. Graphs were plotted using GraphPad Prism 7®.

[2] = target: T1, Full-length Human PSMA (TSC435), on …; assay: as above; remark: listed apart in the source
[3] = target: T2, human CD3ε in the TCR/CD3 complex on Jurkat cells (human, UniProt P07766 23-207); assay: flow cytometry on Jurkat cells, PE goat anti-human IgG Fc secondary, MFI (median)
T2 construct: whole, on cells; On the cells it stands in the whole TCR/CD3 complex; also called CD3 (+) cells; CD3-expressing Jurkat cells
T2 sequence (P07766 23-207, one chain of several): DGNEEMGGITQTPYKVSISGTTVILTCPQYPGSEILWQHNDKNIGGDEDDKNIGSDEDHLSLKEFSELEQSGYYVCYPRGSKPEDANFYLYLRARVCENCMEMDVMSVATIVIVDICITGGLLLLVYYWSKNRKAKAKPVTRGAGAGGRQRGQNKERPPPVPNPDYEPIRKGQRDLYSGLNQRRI

T1 sequence (Q04609 whole entry): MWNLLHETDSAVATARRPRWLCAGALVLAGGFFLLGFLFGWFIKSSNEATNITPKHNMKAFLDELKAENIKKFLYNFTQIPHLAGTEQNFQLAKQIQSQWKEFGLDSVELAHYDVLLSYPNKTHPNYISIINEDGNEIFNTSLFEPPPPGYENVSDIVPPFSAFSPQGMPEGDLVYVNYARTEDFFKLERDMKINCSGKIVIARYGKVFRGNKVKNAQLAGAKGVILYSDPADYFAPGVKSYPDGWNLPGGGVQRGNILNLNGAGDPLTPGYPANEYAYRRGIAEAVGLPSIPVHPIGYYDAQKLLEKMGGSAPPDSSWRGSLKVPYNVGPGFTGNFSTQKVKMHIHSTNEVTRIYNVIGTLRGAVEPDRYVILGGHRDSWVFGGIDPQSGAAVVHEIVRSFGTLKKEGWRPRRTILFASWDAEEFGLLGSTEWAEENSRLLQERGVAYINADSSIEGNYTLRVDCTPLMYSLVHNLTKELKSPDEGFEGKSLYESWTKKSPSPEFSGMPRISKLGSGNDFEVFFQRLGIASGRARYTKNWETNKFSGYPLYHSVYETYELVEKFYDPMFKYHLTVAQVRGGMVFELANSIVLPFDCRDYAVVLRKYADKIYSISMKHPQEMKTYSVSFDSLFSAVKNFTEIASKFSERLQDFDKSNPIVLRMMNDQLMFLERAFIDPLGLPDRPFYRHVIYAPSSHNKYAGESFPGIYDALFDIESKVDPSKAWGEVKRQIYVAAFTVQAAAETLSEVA

binding result [1]: binds
B1: PSMA01040 Fc-linker anti PSMA scFv (Fc fusion)
chain: SSEPKSSDKTHTCPPCPAPPAAAPSVFLFPPKPKDTLMISRTPEVTCVVVDVSHEDPEVKFNWYVDGVEVHNAKTKPREEQYNSTYRVVSVLTVLHQDWLNGKEYKCAVSNKALPAPIEKTISKAKGQPREPQVYTLPPSRDELTKNQVSLTCLVKGFYPSDIAVEWESNGQPENNYKTTPPVLDSDGSFFLYSKLTVDKSRWQQGNVFSCSVMHEALHNHYTQKSLSLSPGGGGSPSDIQMTQSPSTLSASVGDRVTITCRASKSISKYLAWYQQKPGKAPKLLIHSGSSLESGVPSRFSGSGSGTEFTLTISSLQPDDFATYYCQQHIEYPWTFGQGTKVEIKGGGGSGGGGSGGGGSGGGGSQVQLVQSGAEVKKPGASVKVSCKASGYTFTDYYMHWVRQAPGQGLEWMGYFNPYNDYTRYAQKFQGRVTMTRDTSTSTVYMELSSLRSEDTAVYYCARSDGYYDAMDYWGQGTTVTVSSR

binding result [1]: binds
B2: PSMA01037 Anti-PSMA scFv-Fc (Fc fusion)
chain: QVQLVQSGAEVKKPGASVKVSCKASGYTFTDYYMHWVRQAPGQGLEWMGYFNPYNDYTRYAQKFQGRVTMTRDTSTSTVYMELSSLRSEDTAVYYCARSDGYYDAMDYWGQGTTVTVSSGGGGSGGGGSGGGGSGGGGSDIQMTQSPSTLSASVGDRVTITCRASKSISKYLAWYQQKPGKAPKLLIHSGSSLESGVPSRFSGSGSGTEFTLTISSLQPDDFATYYCQQHIEYPWTFGQGTKVEIKSSSEPKSSDKTHTCPPCPAPPAAAPSVFLFPPKPKDTLMISRTPEVTCVVVDVSHEDPEVKFNWYVDGVEVHNAKTKPREEQYNSTYRVVSVLTVLHQDWLNGKEYKCAVSNKALPAPIEKTISKAKGQPREPQVYTLPPSRDELTKNQVSLTCLVKGFYPSDIAVEWESNGQPENNYKTTPPVLDSDGSFFLYSKLTVDKSRWQQGNVFSCSVMHEALHNHYTQKSLSLSPGK
notes: also called PSMA010137

binding result [1]: binds
B3: PSMA01041 Fc-linker-anti PSMA scFv (Fc fusion)
chain: SSEPKSSDKTHTCPPCPAPPAAAPSVFLFPPKPKDTLMISRTPEVTCVVVDVSHEDPEVKFNWYVDGVEVHNAKTKPREEQYNSTYRVVSVLTVLHQDWLNGKEYKCAVSNKALPAPIEKTISKAKGQPREPQVYTLPPSRDELTKNQVSLTCLVKGFYPSDIAVEWESNGQPENNYKTTPPVLDSDGSFFLYSKLTVDKSRWQQGNVFSCSVMHEALHNHYTQKSLSLSPGGGGSPSQVQLVQSGAEVKKPGASVKVSCKASGYTFTDYYMHWVRQAPGQGLEWMGYFNPYNDYTRYAQKFQGRVTMTRDTSTSTVYMELSSLRSEDTAVYYCARSDGYYDAMDYWGQGTTVTVSSGGGGSGGGGSGGGGSGGGGSDIQMTQSPSTLSASVGDRVTITCRASKSISKYLAWYQQKPGKAPKLLIHSGSSLESGVPSRFSGSGSGTEFTLTISSLQPDDFATYYCQQHIEYPWTFGQGTKVEIKR

EC50 [2]: 1 nM
EC50 [3]: > 261 nM
B4: PSMA01086 Anti PSMA scFv x Fc; Anti PSMA scFv x Fc x linker x Anti CD3 scFv (bispecific antibody)
chain 1: QVQLVQSGAEVKKPGASVKVSCKASGYTFTDYYMHWVRQAPGQGLEWMGYFNPYNDYTRYAQKFQGRVTMTRDTSTSTVYMELSSLRSEDTAVYYCARSDGYYDAMDYWGQGTTVTVSSGGGGSGGGGSGGGGSGGGGSDIQMTQSPSSLSASVGDRVTITCRASKSISKYLAWYQQKPGKAPKLLIHSGSSLESGVPSRFSGSGSGTEFTLTISSLQPDDFATYYCQQHIEYPWTFGQGTKVEIKEPKSSDKTHTCPPCPAPPAAAPSVFLFPPKPKDTLMISRTPEVTCVVVDVSHEDPEVKFNWYVDGVEVHNAKTKPREEQYNSTYRVVSVLTVLHQDWLNGKEYKCAVSNKALPAPIEKTISKAKGQPREPQVYTLPPSRDELTKNQVSLWCLVKGFYPSDIAVEWESNGQPENNYKTTPPVLDSDGSFFLYSKLTVDKSRWQQGNVFSCSVMHEALHNHYTQKSLSLSPG
chain 2: QVQLVQSGAEVKKPGASVKVSCKASGYTFTDYYMHWVRQAPGQGLEWMGYFNPYNDYTRYAQKFQGRVTMTRDTSTSTVYMELSSLRSEDTAVYYCARSDGYYDAMDYWGQGTTVTVSSGGGGGGGGSGGGGSGGGGSDIQMTQSPSSLSASVGDRVTITCRASKSISKYLAWYQQKPGKAPKLLIHSGSSLESGVPSRFSGSGSGTEFTLTISSLQPDDFATYYCQQHIEYPWTFGQGTKVEIKEPKSSDKTHTCPPCPAPPAAAPSVFLFPPKPKDTLMISRTPEVTCVVVDVSHEDPEVKFNWYVDGVEVHNAKTKPREEQYNSTYRVVSVLTVLHQDWLNGKEYKCAVSNKALPAPIEKTISKAKGQPREPQVYTLPPSRDELTKNQVSLSCAVKGFYPSDIAVEWESNGQPENNYKTTPPVLDSDGSFFLVSKLTVDKSRWQQGNVFSCSVMHEALHNRFTQKSLSLSPGGGGSPSDIQMTQSPSSLSASVGDRVTITCRASSSVSYMNWYQQKPGKAPKRWIYDSSKLASGVPSRFSGSGSGTDFTLTISSLQPEDFATYYCQQWSRNPPTFGQGTKVEIKGGGGSGGGGSGGGGSGGGGSQVQLVQSGAEVKKPGASVKVSCKASGYTFTRSTMHWVRQAPGQGLEWIGYINPSSAYTNYAQKFQGRVTLTADKSTSTAYMELSSLRSEDTAVYYCASPQVHYDYNGFPYWGQGTLVTVSS

binding result [1]: binds
B5: PSMA01036 Anti-PSMA scFv-Fc (Fc fusion)
chain: DIQMTQSPSTLSASVGDRVTITCRASKSISKYLAWYQQKPGKAPKLLIHSGSSLESGVPSRFSGSGSGTEFTLTISSLQPDDFATYYCQQHIEYPWTFGQGTKVEIKGGGGSGGGGSGGGGSGGGGSQVQLVQSGAEVKKPGASVKVSCKASGYTFTDYYMHWVRQAPGQGLEWMGYFNPYNDYTRYAQKFQGRVTMTRDTSTSTVYMELSSLRSEDTAVYYCARSDGYYDAMDYWGQGTTVTVSSSEPKSSDKTHTCPPCPAPPAAAPSVFLFPPKPKDTLMISRTPEVTCVVVDVSHEDPEVKFNWYVDGVEVHNAKTKPREEQYNSTYRVVSVLTVLHQDWLNGKEYKCAVSNKALPAPIEKTISKAKGQPREPQVYTLPPSRDELTKNQVSLTCLVKGFYPSDIAVEWESNGQPENNYKTTPPVLDSDGSFFLYSKLTVDKSRWQQGNVFSCSVMHEALHNHYTQKSLSLSPGK
